Data from patent US20140161790A1 (Xencor, published 2014).
Changes are numbered by the printed parent chain. Names may count otherwise.

B1: bevacizumab IgG1 Fc variant M252Y/S254T/T256E (antibody)
heavy: EVQLVESGGGLVQPGGSLRLSCAASGYTFTNYGMNWVRQAPGKGLEWVGWINTYTGEPTYAADFKRRFTFSLDTSKSTAYLQMNSLRAEDTAVYYCAKYPHYYGSSHWYFDVWGQGTLVTVSSASTKGPSVFPLAPSSKSTSGGTAALGCLVKDYFPEPVTVSWNSGALTSGVHTFPAVLQSSGLYSLSSVVTVPSSSLGTQTYICNVNHKPSNTKVDKKVEPKSCDKTHTCPPCPAPELLGGPSVFLFPPKPKDTLYITREPEVTCVVVDVSHEDPEVKFNWYVDGVEVHNAKTKPREEQYNSTYRVVSVLTVLHQDWLNGKEYKCKVSNKALPAPIEKTISKAKGQPREPQVYTLPPSREEMTKNQVSLTCLVKGFYPSDIAVEWESNGQPENNYKTTPPVLDSDGSFFLYSKLTVDKSRWQQGNVFSCSVMHEALHNHYTQKSLSLSPGK
light: not shown
notes: also called YTE; copies: 2 + 2
B2: bevacizumab IgG1 Fc variant V259I/V308F/M428L (antibody)
heavy: B1 heavy with Y258M, T260S, E262T, V265I, V314F, M434L
light: not shown
notes: also called IFL; copies: 2 + 2
B3: bevacizumab IgG1 Fc variant V259I/V308F (antibody)
heavy: not shown
light: not shown
notes: also called IF; copies: 2 + 2
B4: bevacizumab IgG1 Fc variant N434S (antibody)
heavy: not shown
light: not shown
notes: copies: 2 + 2
B5: bevacizumab IgG1 Fc variant M428L/N434S (antibody)
heavy: not shown
light: not shown
notes: also called LS; LS bevacizumab variant; copies: 2 + 2

The binders below were run against T1, human FcRn (heterodimer of alpha chain and beta2-microglobulin) (human, UniProt P55899 24-297; P61769 21-119, limits assumed) (assay: SPR as above, pH 6.0; fold KD against native IgG1).
T1 construct: Co-expressed in HEK293T cells; also called hFcRn; human neonatal Fc receptor
T1 sequence (P55899 24-297 limits assumed, chain 1 of 2): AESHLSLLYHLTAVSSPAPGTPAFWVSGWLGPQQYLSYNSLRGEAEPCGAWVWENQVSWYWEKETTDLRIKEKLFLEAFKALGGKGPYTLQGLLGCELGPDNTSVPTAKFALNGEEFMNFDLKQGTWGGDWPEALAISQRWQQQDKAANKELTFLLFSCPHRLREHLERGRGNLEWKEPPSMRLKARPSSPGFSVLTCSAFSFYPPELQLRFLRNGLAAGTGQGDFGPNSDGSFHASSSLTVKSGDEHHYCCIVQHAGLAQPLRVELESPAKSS
T1 sequence (P61769 21-119 limits assumed, chain 2 of 2): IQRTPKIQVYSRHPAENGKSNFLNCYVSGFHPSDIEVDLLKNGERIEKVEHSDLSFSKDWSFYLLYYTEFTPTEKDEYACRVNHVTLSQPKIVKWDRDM

Binder	Fold KD
B1	7.24 fold
B2	19.8 fold
B3	5.8 fold

Each binder was assayed against T1, human FcRn (heterodimer of alpha chain …) (assay: SPR, FcRn coupled directly to CM5 chip, antibody analyte at 200 nM bound at pH 6.0, dissociation at pH 7.4; avid format, relative values only).

Binder	koff
B4	0.29 s⁻¹
B1	0.32 s⁻¹
B2	0.13 s⁻¹
B5	0.33 s⁻¹
B3	0.6 s⁻¹

These binders were tested against T1, human FcRn (heterodimer of alpha chain …) (assay: SPR (Biacore 3000), antibody captured on immobilized VEGF, human FcRn as analyte, pH 6.0, 1:1 Langmuir fit).

Binder	Kd	koff	kon
B1	340 nM	0.0549 s⁻¹	162000 M⁻¹ s⁻¹
B2	124 nM	0.0238 s⁻¹	192000 M⁻¹ s⁻¹
B3	424 nM	0.0752 s⁻¹	178000 M⁻¹ s⁻¹
